Measured values reported in publication PMC10471632, “Protein engineering and iterative multimodule optimization for vitamin B6 production in Escherichia coli” (Nature Communications, 2023).

What was measured:
Assay in all cases: NADH formation at A340
[1] = substrate: NC(=O)c1ccc[n+]([C@@H]2O[C@H](COP(=O)(O)OP(=O)(O)OC[C@H]3O[C@@H](n4cnc5c(N)ncnc54)[C@H](O)[C@@H]3O)[C@@H](O)[C@H]2O)c1; format: biochemical, Escherichia coli; settings: E4P 8 mM, 50 mM PPi buffer pH 8.6, 1 mM DTT, 37 °C, varied: cofactor
Text: (§1) NADH formation at A340 on Eco_Epd

[2] = substrate: O=C[C@H](O)[C@H](O)COP(=O)(O)O; format: biochemical, Escherichia coli; settings: NAD+ 2 mM, 50 mM PPi buffer pH 8.6, 1 mM DTT, 37 °C
Text: as §1

[3] = substrate: NC(=O)c1ccc[n+]([C@@H]2O[C@H](COP(=O)(O)OP(=O)(O)OC[C@H]3O[C@@H](n4cnc5c(N)ncnc54)[C@H](O)[C@@H]3O)[C@@H](O)[C@H]2O)c1; format: biochemical, Brumicola nitratireducens; settings: E4P 8 mM, 50 mM PPi buffer pH 8.6, 1 mM DTT, 37 °C, varied: cofactor
Text: (§2) NADH formation at A340 on […]

[4] = substrate: O=C[C@H](O)[C@H](O)COP(=O)(O)O; format: biochemical, Brumicola nitratireducens; settings: NAD+ 2 mM, 50 mM PPi buffer pH 8.6, 1 mM DTT, 37 °C
Text: as §2

B1: Eco_Epd (Escherichia coli K-12) (protein)
chain: TVRVAINGFGRIGRNVVRALYESGRRAEITVVAINELADAAGMAHLLKYDTSHGRFAWEVRQERDQLFVGDDAIRVLHERSLQSLPWRELGVDVVLDCTGVYGSREHGEAHIAAGAKKVLFSHPGSNDLDATVVYGVNQDQLRAEHRIVSNASCTTNCIIPVIKLLDDAYGIESGTVTTIHSAMHDQQVIDAYHPDLRRTRAASQSIIPVDTKLAAGITRFFPQFNDRFEAIAVRVPTINVTAIDLSVTVKKPVKANEVNLLLQKAAQGAFHGIVDYTELPLVSVDFNHDPHSAIVDGTQTRVSGAHLIKTLVWCDNEWGFANRMLDTTLAMATVAFR
Km [1]: 717 µM | kcat [1]: 3.23 s⁻¹ | kcat/Km [1]: 4510 M⁻¹ s⁻¹ | Km [2]: 969 µM | kcat [2]: 0.15 s⁻¹ | kcat/Km [2]: 155 M⁻¹ s⁻¹

B2: Gni_Epd (Brumicola nitratireducens FR1064) (protein)
chain: MLRIAINGFGRIGRNVLRALYESGRNDQIQVVAINEIASPEGVAHLLKYDTAHGRFKGTVDYTDQCLIVNGDKIPLFQKNNIEELAWSTVNVDIVLECTGVFSSRESAQQHIDNGARKVLFSQPCGQDMDATIVFGVNHKTLKPSDVIVSNGSCTTNCIVPIIQVLDEAFGVESGTITTIHSSMNDQQVIDAYHPDLRRTRAASQSIIPVDTRLHVGIERILPRFAGKFEAIAVRVPTINVTAMDLSVTLRDKVTVSDVNAVLKKSAHGELKRIIDYTEEPLVSVDFNHDPHSSIVDGTQTRVSHKQLVKTLVWCDNEWGFANRMLDTALHMHQLDS
Km [3]: 51 µM | kcat [3]: 0.313 s⁻¹ | kcat/Km [3]: 6140 M⁻¹ s⁻¹ | Km [4]: 737 µM | kcat [4]: 0.323 s⁻¹ | kcat/Km [4]: 438 M⁻¹ s⁻¹
